Changes are numbered by the printed parent chain.
Legend:
[1] = system: T1, RhpRpsph (Pseudomonas syringae pv. phaseolicola), ORF:976030cf; test: EMSA; settings: 10 mM Tris-HCl pH 7.4, 50 mM KCl, 5 mM MgCl2, 10% glycerol, 3 ug/ml sheared salmon sperm DNA, room temperature
T1 sequence: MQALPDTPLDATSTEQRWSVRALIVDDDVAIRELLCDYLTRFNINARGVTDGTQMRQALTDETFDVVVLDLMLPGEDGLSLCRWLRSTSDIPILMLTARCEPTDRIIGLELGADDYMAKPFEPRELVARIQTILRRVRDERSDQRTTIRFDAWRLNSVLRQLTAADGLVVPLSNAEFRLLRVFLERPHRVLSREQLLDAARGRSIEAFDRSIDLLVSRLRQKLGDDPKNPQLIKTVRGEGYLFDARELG

[2] = system: RhpR (Pseudomonas syringae pv. tomato DC3000?); test: EMSA; settings: 10 mM Tris-HCl pH 7.4, 50 mM KCl, 5 mM MgCl2, 10% glycerol, 3 ug/ml sheared salmon sperm DNA, room temperature
RhpR = molecular target: T2, RhpR (Pseudomonas syringae, UniProt A0ABY1U8E6); test: […] phosphorylation, autoradiography; type: biochemical; settings: phosphodonor; covalent phosphorylation (putative site Asp70); labelled compound; 37 °C, 30 min
T2 construct: gene virG; full-length, N-terminal His6 tag (pMCSG19, MBP cut off in vivo), E. coli BL21 star (DE3)

[3] = system: T3, RhpR (Pseudomonas syringae pv. tomato DC3000?), ORF:d96f1ca2; test: EMSA; settings: 10 mM Tris-HCl pH 7.4, 50 mM KCl, 5 mM MgCl2, 10% glycerol, 3 ug/ml sheared salmon sperm DNA, room temperature
T3 sequence: T1 sequence with D6E, T7N, P8T, E15D, T53S

## ATATTACCGCGCAAACCATCGACCAGGATTTTGCCCGCAACGGCAAGATTCACCGCGCCTGGAAAATCATGGCGCGTGCCTGATACGGTGTGTGATGAGCTTGCCTGTAACAGTTTTGTACAGGTTTGCTCATCGCTCCCTATGAAAATTACTGGCGAATAGCTATAACAGAAGTCATAGCCAGCTTGACGCTTCAGCATGTTGGCGTCATGAGTTTCTG (double strand) [rlmL]
[1]
  binding: binds

## rhpR promoter EMSA probe
[2]
  binding signal (fold affinity vs unphosphorylated RhpR): 8
[2]; scale: fold affinity vs unphosphorylated RhpR
  binding signal: 8

## CGCCTGGCGAATGTCTTATGGCAGCTTATTCGCAGCAGCAACTCATAGGCATCGGGGGGCTATCGGTCGATCCGTATATCAAAACTGATACCGCAAGGCTAAGGCGTGTGTACGTAACACCTACTGTAAGGAGGCAACATGTAGGTCAGGCGCTGGTAAAAGCATTGATTGCGCAGGCCGCGCTTCGTTTTCAGTGCGTGCGTCTTTCCACTGACACCTCTGAAGGCGATGCGTTTTACCTGCGTTGCGG (double strand) [PSPPH4977]
[1]
  binding: binds

## TTCGATACTTAGCGGATCAGGCATTATCGCATCGCCGCAAAAAATAATCCTGCCGCCGGGAGGAGAGCACACGGTTAGATTGCGCTCGTTGTCGAGTCCAAATAAAGAGTTGTTATATCGTGTATATGTCGAGACTGTAGCTGCGAATACGGATGAAGATCATGTGGTTACAGAGGGGGGTGGCAGCGTTGGTATTAGTCTAACATGGGGG (double strand) [PSPPH0775]
[1]
  binding: no binding

## CC(=O)OP(=O)(O)O [acetyl phosphate]
RhpR
  32P phosphorylation, autoradiography: The phosphorylated RhpR was readily detected

## GCAGGAACCCCTCTCGTTATCGGGTTGTCGACAACAGACTGGCTGTTAAAACCTGTTCAGAGTGTGAACAGAGCCTGGACACCTGAATTTTCATTACGAGAGGTTGCC (double strand) [PSPTO_1489 promoter]
[3]
  binding: no binding

## TACAAGGGGTAGGGCTGTGACTGTCAGAAAGGTCCTATGCCCCGACACCTGCACGGTATAGAACACGCCAAACATCACGGCCATACGCCACCATCCGCTCTCCCGAATGTTCAGCAAAAGTACAGATACATCCTGCTACAACAATCCTTGCGCAGAAACATTTGAGCGACTGGGCACTGCGTTCAGCGCCACTGCACCTGCGGATGATTCCGAGGAGGCAACATGTTCTTAAGGTATGGGGTATTGATCGCATCACTTGCGATAGCGTCA (double strand) [PSPPH1086]
[1]
  binding: binds

## GGGAACAGTTTGCGTTTTTCAGCCAGCCTCACTCATTAGCTGGATAAGCAGACAGGCGTTCTTTCACTTGATTCCGGTACAAGTTCTCATAACGATTGAAAGCCTGCTGCATCGATTCATCTATCCATGTATAAATGCTGTTACACATTGGCCCATCTCTGGAGACTCAGCGCATGCGTTACGCGCTCGATCATAAGGCCCAAACCCATCAACGTATCGTCAAGGAAGCGTCCATGCGCTTTCGTCGCGATGGCATTGGTGCTACGGGCTTACAACCTT (double strand) [PSPPH3654]
[1]
  binding: binds
